The values below come from the domain aggregation screens of Martell et al. (2025).

The series is described as follows: soluble fraction after stress (log2 fold change); higher = more stays soluble; pooled small domains, quantitative proteomics. As to conditions: stress: 50 degC. A digest of the protocol: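 Quantitative proteomics served as the high-throughput read-out for pooled custom libraries of small protein domains. Each was stressed at 50°C. Aggregation propensity is expressed as the base-two log fold change in soluble protein after stress. A higher value means a larger share of the protein remains in solution.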
Turning to “HMGRSTQVPGVEKMTYSQAVQLLHDHGFRVDIRDSLYRDDIKPGHVIEQFPKAKSIVKPGRKIFLYINAV”, the “soluble fraction (log2)” value is -1.32.

For the sequence “HMGRTGTVVVSPSLNVRTGPWGEIIGSLYNGNKVEIIGSSGDWYQISFGGKTAYVHSDYVVDGG”, the “soluble fraction (log2)” value is -0.51.

As for “HMGSDAFDISKLNLVGKTKESAESLLKENGFSVDTKEEASDTAAKGTVISYSPTKPKNGERVTLTVSSGK”, the “soluble fraction (log2)” value amounted to 0.337.

For “HMGSDQEAAMARQDRLSTLVDYVVERGSVHVDDIVADLGVSPATVRRDLDALAAQQLIIRTRGGATANHT”, the “soluble fraction (log2)” value was 0.0263.

For the sequence “HMGSGKGAAHTILGISADASDDEIKAAWRKLVQENHPDKLVSQGLPDEFVQAATDRLRLINTAYQSMLNRP”, the “soluble fraction (log2)” value was -0.0378.

For “HMGSGLAAAEKIRKAHPEIKIVVATSLIDTQVLARAKAVGADSLWYKDGDEGTLMQVVRRTMAGDHIFP”, the “soluble fraction (log2)” value was -0.00704.

Regarding “HMGSIGAMLSSPELYGKLATNPATRGFLSQPDFIAMLTDVQKNPDKFGSYMSDPRMMQVLSVALG”, the “soluble fraction (log2)” value turned out to be 0.118.

As for “HMGSIRDIIVQYLSKFDDPQPAAKIVEYVQQYRDTTESSIRSSMGSGDQFVQFSGGLYGLKDKTYAAWYSI”, the “soluble fraction (log2)” value is -0.321.

As for “HMGSLKISNPVKDTLWIQGVDGLKSIEIYSSTGQLVKTILGNQGDVSSLPKGVYFLKINTPSESLTAKIIK”, the “soluble fraction (log2)” value was -0.0698.

“HMGSLPPPKDGTTIYVVKPGDSLWRISGKFFGNPLFWPRLWEINPNIDNPNKIYPGDVISLKP”: the “soluble fraction (log2)” value was found to be 0.00421.

For the sequence “HMGSLVKLQSAAELHQAGRSAEAVPILLEVLATNPRLVDGWEILANALEKLGRLDEALAALKKTVALSPPG”, the “soluble fraction (log2)” value is -0.694.

Regarding “HMGSNENTIREYFDSLIASASKREIMDANPTMSQRTVERILQKLQAEGYVEKIGAARSTRYRRA”, the “soluble fraction (log2)” value is -0.178.

For the sequence “HMGSQLYTLEVEADEKISLIENNPLLIQKIYLKDNNLFSYKIASSSKTEIASIEKELEKNPSIKRLETA”, the “soluble fraction (log2)” value was -0.181.

Take “HMGSQQIEEGMRRLVASGALRPGASVPSVRDLARDLQVNPATVVRAYQRLVDAGLLVVRRGEGTFVAE”: the “soluble fraction (log2)” value was -0.588.

Consider “HMGSSLLSPKEREVLQLLAGNLSNKQIALAMGVSDETIKWHLRNLFGKLNAGGRKHLIDRARMLGLLAAA”, for which the “soluble fraction (log2)” value was -0.6.

As for “HMGSVHDAATDRIREMILGGQFEPGERLRQDDLATSLGVSTMPVREALRQLQAEGLVVFYPRKGAVVAR”, the “soluble fraction (log2)” value came out at 0.142.

As to “HMGTAEDYLLPRRAEILSIIRDHEFANFDLIRRRFLAVNERTLRYDLKKLSDLGLIKKLGKTRGVYYRAAK”, the “soluble fraction (log2)” value was -1.49.

As to “HMGTAVKAPMPGTILKVNVTAGQSVKAGDIMFILEAMKMENEIVAPSDGTVSQVVAAKGSSVATDDVLAYL”, the “soluble fraction (log2)” value is -0.0338.

For the sequence “HMGTDGLKDIVLEILKEHPNQLAELIDGKQKVLGFLVGQVMKKTNGAANPKEVNEIIQGEIKK”, the “soluble fraction (log2)” value is -0.0707.

Regarding “HMGTELSYSEFLNKVEAGEVTNVTIRGPEITFQTGNSSYTTYAPDDPKLIEHLTAKGVAIKAGP”, the “soluble fraction (log2)” value came out at 0.216.

With “HMGTGELLVHVIGAVHSPGVVRLPTGARVVDAIDAAGGAREDAQTEQLNLARLVDDGEQVRVPVVGESVD”, the “soluble fraction (log2)” value was -0.0181.

Turning to “HMGTGIKQVNVVSVIGQDEETAKTTLTNLGLKVNVTYATSTSDNGKVTKQSIDAGKTVDEGTSVTITVNKV”, the “soluble fraction (log2)” value turned out to be 0.241.

As to “HMGTHSAEQVRAAIRAIVAAEDAANPLSDARITELLAMRGIAAARRTVMKYREQLGIPSSAKRRR”, the “soluble fraction (log2)” value is -0.343.

Turning to “HMGTHVVQEGEYLDLIIEKTIPGSPIRKDLLRKAFVKLNPSAFGGRGNPNYIFARKKLKVPSVEDLKAVIF”, the “soluble fraction (log2)” value is -0.0708.

Turning to “HMGTIEEYSKYLINQYFDSLKKPMDAMTTSEKIEIVKSLDKKGIFNLKGSVGELAKRFNTSEKTIYRYLSS”, the “soluble fraction (log2)” value was 0.0367.

As for “HMGTKRWELPRRVQQMATQHGKSISTAAAEELVSRSGENTRMLDNDLVKLAQMVEAPQIELADVERWIVR”, the “soluble fraction (log2)” value stood at 0.221.

For “HMGTLPSLAPSGEKTVRLPNLAGWSLRETMEILQKGGLQLLPIGSGISFKQSPPPGTTLNEGDAVTVWF”, the “soluble fraction (log2)” value is 0.0292.

As for “HMGTNTTGWIKIADDWKYIDSNGEYTVNDWRQSADGGWYYLGYNGNMLKNQTTPDGYYVDAEGLWDGMSPA”, the “soluble fraction (log2)” value is -0.709.

For “HMGTPEQVVVSSVLKETNEIVLKWPADGFMAKYKMDNLNLNFEPVHGQGVMGYFIGSRLIKLELV”, the “soluble fraction (log2)” value is -0.251.

For the sequence “HMGTPSAEELAFSAQKGNAVMRIMEIREKYIENGGQISDEERNEIERLIAIYYPKASIFDYLPMMG”, the “soluble fraction (log2)” value is -0.136.

On to “HMGTSFEDIDRAVKSVRKPETDEAEKLHAGKTFKDIAETELFQKLTESFAGISDRVNEVIDLYTARAAE”, for which the “soluble fraction (log2)” value was determined as 0.143.

Regarding “HMGTSSAEIAAELRAQIFAGELRPGEMLPSAREITGTWNVAIATASRVHALLRSEGLATPVPGVGTVVAT”, the “soluble fraction (log2)” value turned out to be 0.0105.

“HMGTTAWISTKTANGSVNIRTGPGTGYGVIGWALNGDKLEVLSRGTSWHYVKLVKNGKIGYVSASYVSFTQ”: the “soluble fraction (log2)” value was -0.193.

Consider “HMGTTKGVVDVTVPNGRASQHVKLVVIDDDGGRVVYDGTNAPGDRIVKSVSGSGNVRVQIYLNNALVQEQS”, for which the “soluble fraction (log2)” value is -0.2.

As to “HMGTTMLEVPNFVGEVFKEIDPEKYPNLRLVDSDYTYSNEYEAGKVISQDPVARTQVAEGSTVKLVIS”, the “soluble fraction (log2)” value is 0.133.

Consider “HMGTVISVDKARSIALAKVPGASANDIRIHLDRDDGRQIYEGEIYYNRMEYEFEIDASTGTIIEWSAEHW”, for which the “soluble fraction (log2)” value was -1.73.

In the case of “HMGTVQSVDRALLLLSEIGREPGGLVDLSTRVRLATSTTGRILATLEHAGAVVRGDDGIYHIGPLVHGMVS”, the “soluble fraction (log2)” value was -0.839.

On to “HMGTYSKQDLLQLIGRYPDGIGKREINLAFSKGTKIRNLLNIELNELLNERLITLSQGGLYIKP”, for which the “soluble fraction (log2)” value was -1.56.

Regarding “HMGVAFAPVEKIKHTKTGNELYAVKLAGRVEAEVFGQLRQKAKEYDGYYSKFSRAFLFSTPEDAEAFRAE”, the “soluble fraction (log2)” value stood at 0.0208.

Take “HMGVDIAEHDGQPAVSIRKGAAESVAQWVKDQGGTFPQEVEMTVQNVARAGGTPLVVARGRDVLGVIYLKD”: the “soluble fraction (log2)” value was 0.0501.

Consider “HMGVDKLTPREREVLALMAQGASNREIEGKLVLTAGAVSKHVANVFMKLGFSPEDENRRVKAVLAWLRTK”, for which the “soluble fraction (log2)” value is -1.05.

Turning to “HMGVGIEALAVEVDRIRQVLTGGGALSDIQLFSQLKALGEVKTALSSMTDPRARELEKRVAQLLEASLRT”, the “soluble fraction (log2)” value is -0.0594.

With “HMGVKHKHKGAGELLAALRTMFPNSSVSTLRKMLTQGRVVLNGEVVHRAKHELTDGDTIEVLERQRAER”, the “soluble fraction (log2)” value worked out at 0.209.

On to “HMGVKIELNENEQAIFAAMQKQVEAVLPDLRAQFADMSNKAWDNSVKTLTKNNLLKVSKEAEILFIRL”, for which the “soluble fraction (log2)” value was -0.718.

As to “HMGVKTDKYYYQMATETRVNKHYGLSNQYIATLISEYPRSPLIPNASILSKKNNADLALIDQSINQR”, the “soluble fraction (log2)” value is -0.397.

For the sequence “HMGVLSPRQSQILALVAQGLGNREIAERLHIAPTTARDHVQAIMRRLNVNSRAAAAVMGVKLGLI”, the “soluble fraction (log2)” value was -0.625.

As for “HMGVNEGVNKLFKTIQETPGKRMPYYALATDVPEKTIERWLKQLREEGKIEFKGSAKTGGYFVIDK”, the “soluble fraction (log2)” value came out at 0.0649.

Take “HMGVRDIRIFERNNSFFVNAEIRGEAQLSVPITRTDYQLFKENKIDALSLVEKYYAEELNASNEMK”: the “soluble fraction (log2)” value was -0.164.

Take “HMGVSLNELAYRRFKQALVTLSYKPGEYLNTAQVMNDLDMGRTPINQAIHRLANEGLLQVIPRKGVMVS”: the “soluble fraction (log2)” value is -1.79.

Turning to “HMGVTDLFAVLGFPRSPWLDAEELKQRHHALMADEASANSSPTILNEARRTLQNPALRIRHFLALEFPDH”, the “soluble fraction (log2)” value was -0.397.

As to “HMGVYDLIYLGYGINVEKEELVDQNISIIRRYANIFDPNGDIKGSTNPTYASNTAVLFNEAKFIIDGYD”, the “soluble fraction (log2)” value is -3.65.

Turning to “HMGWQPDPLTTRERLVAELATQASNAQIAEQLHLSVRTVEGHLAHVYTKLGITTRRELPAALAGAR”, the “soluble fraction (log2)” value is -0.891.

With “HMGWTTPAGIAVGMDKSVLQDAYGKEDDTFQDKGILYYQYFVHPSRMSGLSFGIKNDKIVSITAYMD”, the “soluble fraction (log2)” value is -2.06.

With “HMGYDDLEPFDANGRLRWSDQELVLAFGRHRGATLRTLELNDPSYLRWLLSGNGPLEQQDIQRLEQILES”, the “soluble fraction (log2)” value is -1.26.

Consider “HMGYDLLFQQALGFHEQGRLNEAENIYRQILETAPNNPDILNLLGLIAQQKGLHAQAVDYFYQAIRL”, for which the “soluble fraction (log2)” value is -1.41.

As for “HMGYDVAEVKFRLIKLLRDSKIGISGVEISERLGINRVTMTKYLNIFSAEGVIGEKNIGNVNLWFVYEGIE”, the “soluble fraction (log2)” value is -1.68.

As to “HMGYQLSLEAQSQLKALGLTSEYITRILDEADNRQPIPGTSRTVYSLNGYQVEFSHSDQQVIRIARG”, the “soluble fraction (log2)” value worked out at 0.0139.

Take “HMGYSDEIGEFIKKLRTENHLTQKEFADKYGVTYQAVSKWENGKNLPDMSLIKQMSEDFNIGIDELLDGEK”: the “soluble fraction (log2)” value is -0.00754.

“HMGYTLDVAHGVTEDMNFSEAFATAREEVGPGGIFYWHGKPYGTYYENEWNAMDEEDKAEYWDAVGRTTA”: the “soluble fraction (log2)” value is -0.149.

In the case of “HMHANSDVEQLMQMGIQRLNFQRYSDALLIFNQIIENFPDYAEAWNKRATLHYLLGNLDKSIADIEQTLE”, the “soluble fraction (log2)” value is -2.54.

Take “HMHAPIAELKKVFKEEFADQEVTVRQLAGSVLLSGNVKTAELRENLESVAKQFFPRVINNLKLI”: the “soluble fraction (log2)” value was -0.000214.

For the sequence “HMHDAKAEIIRLSALLTEYQRSYYIDGHSQVSDLEYDRLFDRLVALETSHPELREADSPTQRV”, the “soluble fraction (log2)” value was -0.855.

For “HMHDAKTQLQEEAARRGLPAPVYTRIGQEGPDHAPRFRVRADVGPHQAEAVAGSLKLAQAEAARAILRQMP”, the “soluble fraction (log2)” value stood at 0.228.

Take “HMHDITPAVAETFKQLRAERGLSLSQAAQLTGVSKAMLGQIERGQSSPTVSTLWKIATGFNVAFSVFL”: the “soluble fraction (log2)” value is -2.4.

For the sequence “HMHDLGEQIIEKLRASGGISTLTDKSDPDAIYRQFKVSKKKYKQALGTLYKSRRITLAPNQIKLA”, the “soluble fraction (log2)” value is -0.129.

Take “HMHDPLATLTPREHEVMSLMAEGRTNAAIAQALVIGTGAVEKNVTSIFQKLGLDDSGTDHRRVLAVLAWLQ”: the “soluble fraction (log2)” value is -2.14.

Turning to “HMHDRRSGKVKWYSDRKGYGFIDLDGGEVFIHRSALIAFGALRLQAEDIITITVRETDRGLVVDQLFGIER”, the “soluble fraction (log2)” value is -2.03.

Consider “HMHEAILNQIRNEELMLYIGELSDAQQDVILLKYFHQMTFKEIAESFSIPISTVKTRHTAALKKLSTLWK”, for which the “soluble fraction (log2)” value was -0.16.
